Experiment [1] has as its target PF3D7_0800200 (ATS domain, 2,466-2,858 aa)-His (Plasmodium falciparum) (UniProt Q8IAK2). The experiment in a line: BLI; Octet K2; ATS-His loaded onto Ni-NTA biosensors; GST-tagged analyte diluted from 1,000 to 62.5 nM in PBS with 0.02% Tween-20; association and dissociation 5 min each; non-linear global fit. A general note: In BLI a coated tip is dipped into the sample, and binding shifts an interference pattern.

The target of experiment [2] is T1, PF3D7_0800200 (acidic C-terminal segment (ATS) domain, 2,466-2,858 aa)-His (Plasmodium falciparum, UniProt Q8IAK2 2466-2858).
T1 construct: the reverse primer has no stop codon), which would give a C-terminal His tag; also called ATS-His; PfEMP1 ATS; source: E. coli BL21 (DE3), purified
T1 sequence: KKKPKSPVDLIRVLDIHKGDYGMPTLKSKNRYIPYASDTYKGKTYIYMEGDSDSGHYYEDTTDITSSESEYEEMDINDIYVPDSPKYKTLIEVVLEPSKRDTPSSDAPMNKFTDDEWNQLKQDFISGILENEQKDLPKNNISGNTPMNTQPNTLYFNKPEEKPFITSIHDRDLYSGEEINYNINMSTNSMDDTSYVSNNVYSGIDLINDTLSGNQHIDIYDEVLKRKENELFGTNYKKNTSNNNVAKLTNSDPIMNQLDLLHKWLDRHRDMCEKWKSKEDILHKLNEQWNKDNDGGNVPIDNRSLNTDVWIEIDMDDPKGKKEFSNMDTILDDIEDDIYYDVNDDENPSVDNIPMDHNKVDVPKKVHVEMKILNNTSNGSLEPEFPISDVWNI
The experiment in a line: BLI; Octet K2 (ForteBio); ATS-His loaded onto Ni-NTA biosensors; GST-tagged protein in solution diluted from 1,000 to 62.5 nM in PBS with 0.02% Tween-20; association and dissociation 5 min each; non-linear global fit; KD calculated as Kdis/Kon. To be noted: both partners purified.

The target of experiment [3] is T2, PF3D7_0800200 (ATS domain, 2,466-2,858 aa)-His (Plasmodium falciparum, UniProt Q8IAK2 2466-2858).
T2 construct: Cloned into pET-28a; also called ATS-His; PfEMP1 ATS; source: E. coli BL21 (DE3), purified
T2 sequence: T1 sequence
The experiment is described as follows: BLI; Octet K2; ATS-His loaded onto Ni-NTA biosensors; GST-tagged analyte diluted from 1,000 to 62.5 nM in PBS with 0.02% Tween-20; association and dissociation 5 min each; non-linear global fit. The following applies: both partners purified.

The Kd is the free concentration of one partner at which half of the binding sites on the other are occupied at equilibrium, for simple one-to-one binding. The term koff denotes a measure of how fast the partners let go of each other. In general, kon refers to the rate constant with which the complex forms.

Take GST: the Kd in experiment [1] was less than 0.001 nM.

B1: PF3D7_1372300-(130-206)-GST (domain or fragment)
chain: NQYGKSPPKITWQGCSYDCNMMVSTLETEQTNRFYNLLNKKAPIDEIKSFIRSCIDEFDKLHTDLYVKYEKIFSEQK
notes: PF3D7_1372300, a PHIST/PHISTa-like protein of Plasmodium falciparum, residues 130-206; purified 'according to the methods described above'; also called PF3D7_1372300 (residues 130-206); source: E. coli BL21 (DE3), purified
For B1, in experiment [2], the koff was 0.000158 s⁻¹ and the kon was 6960 M⁻¹ s⁻¹.

B2: PF3D7_1372300-(130-206)-GST (domain or fragment)
chain: B1 chain
notes: PF3D7_1372300, PHIST/PHISTa-like protein of Plasmodium falciparum, residues 130-206; source: E. coli BL21 (DE3), purified (according to the methods described for the other recombinant proteins)
With B2, the Kd in experiment [3] stood at 22.6 nM.

B3: PF3D7_1372300 (27-206 aa)-GST (domain or fragment)
chain: RNEIHKNSLGFGKNDNIYSRNLAQLKLSNYSLLKDSKFESVTEQLTREELYELFDLLVQVPPRTYLLNIWNHKNGICRQGTKDLLKNLRGIAPKLTYRHTGNTNQYGKSPPKITWQGCSYDCNMMVSTLETEQTNRFYNLLNKKAPIDEIKSFIRSCIDEFDKLHTDLYVKYEKIFSEQK
notes: PF3D7_1372300, a PHIST/PHISTa-like protein of Plasmodium falciparum, residues 27-206 (without the 25-residue signal peptide), amplified from P. falciparum cDNA; the reverse primer carries a stop codon; also called PF3D7_1372300-GST; 1372300-GST; source: E. coli BL21 (DE3), purified
For B3, in experiment [2], the koff is 0.000756 s⁻¹ and the kon was 6330 M⁻¹ s⁻¹.

B4: PF3D7_1372300 (27-206 aa)-GST (domain or fragment)
chain: B3 chain
notes: PF3D7_1372300, PHIST/PHISTa-like protein of Plasmodium falciparum, residues 27-206 (without the 25 amino acid signal peptide), amplified from P. falciparum cDNA; Cloned into pGEX-4T-1; also called PF3D7_1372300-GST; PHIST/PHISTa-like protein; source: E. coli BL21 (DE3), purified
Consider B4, for which binding in experiment [3] was put at a Kd of 119 nM.

B5: PF3D7_1372300-(27-129)-GST (domain or fragment)
chain: RNEIHKNSLGFGKNDNIYSRNLAQLKLSNYSLLKDSKFESVTEQLTREELYELFDLLVQVPPRTYLLNIWNHKNGICRQGTKDLLKNLRGIAPKLTYRHTGNT
notes: PF3D7_1372300, a PHIST/PHISTa-like protein of Plasmodium falciparum, residues 27-129; purified 'according to the methods described above'; also called PF3D7_1372300 (residues 27-129); source: E. coli BL21 (DE3), purified
For the molecule B5, in experiment [2], the koff was 0.000844 s⁻¹ and the kon was 6630 M⁻¹ s⁻¹.

B6: PF3D7_1372300-(27-129)-GST (domain or fragment)
chain: B5 chain
notes: PF3D7_1372300, PHIST/PHISTa-like protein of Plasmodium falciparum, residues 27-129; source: E. coli BL21 (DE3), purified (according to the methods described for the other recombinant proteins)
Regarding B6, in experiment [3], the Kd is 127 nM.

Source of the values: paper PMC7691434, “Interaction Analysis of a Plasmodium falciparum PHISTa-like Protein and PfEMP1 Proteins” (Frontiers in Microbiology, 2020).
